Source: patent publication US20250295737A1 (AstraZeneca / MedImmune, published 2025)

T1: human RXFP1 (human, UniProt Q9HBX9 1-757)
T1 sequence (looked up): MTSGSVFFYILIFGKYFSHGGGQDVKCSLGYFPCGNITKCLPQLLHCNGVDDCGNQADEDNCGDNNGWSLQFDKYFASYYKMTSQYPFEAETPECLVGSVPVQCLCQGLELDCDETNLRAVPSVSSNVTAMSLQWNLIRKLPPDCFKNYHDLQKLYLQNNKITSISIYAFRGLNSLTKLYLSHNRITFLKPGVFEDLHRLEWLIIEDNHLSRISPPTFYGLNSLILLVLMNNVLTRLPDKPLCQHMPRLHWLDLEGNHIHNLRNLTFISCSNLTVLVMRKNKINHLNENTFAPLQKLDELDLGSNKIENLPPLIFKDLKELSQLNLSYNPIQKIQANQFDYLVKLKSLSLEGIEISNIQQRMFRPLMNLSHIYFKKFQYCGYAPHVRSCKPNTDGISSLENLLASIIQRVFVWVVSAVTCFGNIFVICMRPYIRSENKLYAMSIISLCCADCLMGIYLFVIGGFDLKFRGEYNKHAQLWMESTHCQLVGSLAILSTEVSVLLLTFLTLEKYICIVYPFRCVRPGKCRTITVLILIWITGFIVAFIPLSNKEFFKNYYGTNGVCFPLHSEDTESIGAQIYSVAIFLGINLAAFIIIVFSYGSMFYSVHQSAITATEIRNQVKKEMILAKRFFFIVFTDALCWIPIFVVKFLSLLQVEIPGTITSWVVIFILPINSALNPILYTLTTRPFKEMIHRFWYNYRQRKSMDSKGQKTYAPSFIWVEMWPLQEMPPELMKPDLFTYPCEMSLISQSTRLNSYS

T2: mouse RXFP1 (mouse, UniProt Q6R6I7 1-758)
T2 sequence (looked up): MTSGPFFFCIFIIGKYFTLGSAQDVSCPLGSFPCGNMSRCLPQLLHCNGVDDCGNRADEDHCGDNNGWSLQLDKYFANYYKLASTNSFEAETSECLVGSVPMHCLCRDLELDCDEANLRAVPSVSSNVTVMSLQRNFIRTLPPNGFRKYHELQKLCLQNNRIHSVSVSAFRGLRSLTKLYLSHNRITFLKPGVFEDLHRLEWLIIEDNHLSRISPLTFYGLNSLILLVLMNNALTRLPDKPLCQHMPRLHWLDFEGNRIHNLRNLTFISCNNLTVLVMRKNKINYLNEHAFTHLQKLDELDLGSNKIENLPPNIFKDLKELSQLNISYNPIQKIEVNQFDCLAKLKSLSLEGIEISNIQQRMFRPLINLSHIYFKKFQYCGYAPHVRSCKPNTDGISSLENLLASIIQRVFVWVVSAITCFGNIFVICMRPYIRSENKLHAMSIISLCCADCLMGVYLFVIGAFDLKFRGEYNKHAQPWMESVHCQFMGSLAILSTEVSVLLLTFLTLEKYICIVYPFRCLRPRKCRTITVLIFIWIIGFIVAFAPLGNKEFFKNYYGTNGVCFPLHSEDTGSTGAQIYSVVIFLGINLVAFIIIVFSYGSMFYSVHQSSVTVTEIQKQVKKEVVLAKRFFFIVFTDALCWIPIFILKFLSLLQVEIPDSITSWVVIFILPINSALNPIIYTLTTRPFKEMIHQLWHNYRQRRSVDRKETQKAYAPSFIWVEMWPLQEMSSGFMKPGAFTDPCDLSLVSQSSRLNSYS

B1: RELAX0085 (Fc fusion)
chain 1: DKTHTCPPCPAPEFEGGPSVFLFPPKPKDTLMISRTPEVTCVVVDVSHEDPEVKFNWYVDGVEVHNAKTKPREEQYNSTYRVVSVLTVLHQDWLNGKEYKCKVSNKALPASIEKTISKAKGQPREPQVYTLPPCREEMTKNQVSLWCLVKGFYPSDIAVEWESNGQPENNYKTTPPVLDSDGSFFLYSKLTVDKSRWQQGNVFSCSVMHEALHNHYTQKSLSLSPGGGGGSGGGGSGGGGSGGGGGSQLYSALANKCCHVGCTKRSLARFC
chain 2: DKTHTCPPCPAPEFEGGPSVFLFPPKPKDTLMISRTPEVTCVVVDVSHEDPEVKFNWYVDGVEVHNAKTKPREEQYNSTYRVVSVLTVLHQDWLNGKEYKCKVSNKALPASIEKTISKAKGQPREPQVCTLPPSREEMTKNQVSLSCAVKGFYPSDIAVEWESNGQPENNYKTTPPVLDSDGSFFLVSKLTVDKSRWQQGNVFSCSVMHEALHNHYTQKSLSLSPGAPAPAPAPAPAPAPAPAPAGSSWMEEVIKLCGRELVRAQIAICGMSTWS
B2: RELAX0087 (Fc fusion)
chain 1: B1 chain 1
chain 2: DKTHTCPPCPAPEFEGGPSVFLFPPKPKDTLMISRTPEVTCVVVDVSHEDPEVKFNWYVDGVEVHNAKTKPREEQYNSTYRVVSVLTVLHQDWLNGKEYKCKVSNKALPASIEKTISKAKGQPREPQVCTLPPSREEMTKNQVSLSCAVKGFYPSDIAVEWESNGQPENNYKTTPPVLDSDGSFFLVSKLTVDKSRWQQGNVFSCSVMHEALHNHYTQKSLSLSPGGGGGSGGGGSGGGGGSSWMEEVIKLCGRELVRAQIAICGMSTWS
B3: RELAX0105 (Fc fusion)
chain 1: DKTHTCPPCPAPEFEGGPSVFLFPPKPKDTLMISRTPEVTCVVVDVSHEDPEVKFNWYVDGVEVHNAKTKPREEQYNSTYRVVSVLTVLHQDWLNGKEYKCKVSNKALPASIEKTISKAKGQPREPQVYTLPPCREEMTKNQVSLWCLVKGFYPSDIAVEWESNGQPENNYKTTPPVLDSDGSFFLYSKLTVDKSRWQQGNVFSCSVMHEALHNHYTQKSLSLSPGGGGGSGGGGSGGGGGSQLYSALANKCCHVGCTKRSLARFC
chain 2: B1 chain 2
B4: RELAX0106 (Fc fusion)
chain 1: DKTHTCPPCPAPEFEGGPSVFLFPPKPKDTLMISRTPEVTCVVVDVSHEDPEVKFNWYVDGVEVHNAKTKPREEQYNSTYRVVSVLTVLHQDWLNGKEYKCKVSNKALPASIEKTISKAKGQPREPQVYTLPPCREEMTKNQVSLWCLVKGFYPSDIAVEWESNGQPENNYKTTPPVLDSDGSFFLYSKLTVDKSRWQQGNVFSCSVMHEALHNHYTQKSLSLSPGGGGGSGGGGGSQLYSALANKCCHVGCTKRSLARFC
chain 2: B1 chain 2
B5: RELAX0107 (Fc fusion)
chain 1: DKTHTCPPCPAPEFEGGPSVFLFPPKPKDTLMISRTPEVTCVVVDVSHEDPEVKFNWYVDGVEVHNAKTKPREEQYNSTYRVVSVLTVLHQDWLNGKEYKCKVSNKALPASIEKTISKAKGQPREPQVYTLPPCREEMTKNQVSLWCLVKGFYPSDIAVEWESNGQPENNYKTTPPVLDSDGSFFLYSKLTVDKSRWQQGNVFSCSVMHEALHNHYTQKSLSLSPGGGGGGSQLYSALANKCCHVGCTKRSLARFC
chain 2: B1 chain 2
B6: RELAX0084 (Fc fusion)
chain 1: DKTHTCPPCPAPEFEGGPSVFLFPPKPKDTLMISRTPEVTCVVVDVSHEDPEVKFNWYVDGVEVHNAKTKPREEQYNSTYRVVSVLTVLHQDWLNGKEYKCKVSNKALPASIEKTISKAKGQPREPQVYTLPPCREEMTKNQVSLWCLVKGFYPSDIAVEWESNGQPENNYKTTPPVLDSDGSFFLYSKLTVDKSRWQQGNVFSCSVMHEALHNHYTQKSLSLSPGAPAPAPAPAPAPAPAPAPAGSQLYSALANKCCHVGCTKRSLARFC
chain 2: DKTHTCPPCPAPEFEGGPSVFLFPPKPKDTLMISRTPEVTCVVVDVSHEDPEVKFNWYVDGVEVHNAKTKPREEQYNSTYRVVSVLTVLHQDWLNGKEYKCKVSNKALPASIEKTISKAKGQPREPQVCTLPPSREEMTKNQVSLSCAVKGFYPSDIAVEWESNGQPENNYKTTPPVLDSDGSFFLVSKLTVDKSRWQQGNVFSCSVMHEALHNHYTQKSLSLSPGGGGGSGGGGSGGGGSGGGGGSSWMEEVIKLCGRELVRAQIAICGMSTWS
B7: RELAX0086 (Fc fusion)
chain 1: B3 chain 1
chain 2: B6 chain 2

Target: T1, human RXFP1
Experiment: cell-based or functional assay

Binder	EC50 hRXFP1 (M), cAMP HTRF assay [M]
B1	6.37e-11
B2	4.89e-11
B3	7.12e-11
B4	6.96e-11
B5	8.09e-11
B6	5.34e-11
B7	4.49e-11

Target: T2, mouse RXFP1
Experiment: cell-based or functional assay

Binder	EC50 mRXFP1 (M), cAMP HTRF assay [M]
B1	3.09e-11
B2	3.48e-11
B3	1.49e-11
B4	1.98e-11
B5	3.87e-11
B6	3.48e-11
B7	2.68e-11

Target: human RXFP2 (human, UniProt Q8WXD0 1-754)
Sequence (Q8WXD0 whole entry): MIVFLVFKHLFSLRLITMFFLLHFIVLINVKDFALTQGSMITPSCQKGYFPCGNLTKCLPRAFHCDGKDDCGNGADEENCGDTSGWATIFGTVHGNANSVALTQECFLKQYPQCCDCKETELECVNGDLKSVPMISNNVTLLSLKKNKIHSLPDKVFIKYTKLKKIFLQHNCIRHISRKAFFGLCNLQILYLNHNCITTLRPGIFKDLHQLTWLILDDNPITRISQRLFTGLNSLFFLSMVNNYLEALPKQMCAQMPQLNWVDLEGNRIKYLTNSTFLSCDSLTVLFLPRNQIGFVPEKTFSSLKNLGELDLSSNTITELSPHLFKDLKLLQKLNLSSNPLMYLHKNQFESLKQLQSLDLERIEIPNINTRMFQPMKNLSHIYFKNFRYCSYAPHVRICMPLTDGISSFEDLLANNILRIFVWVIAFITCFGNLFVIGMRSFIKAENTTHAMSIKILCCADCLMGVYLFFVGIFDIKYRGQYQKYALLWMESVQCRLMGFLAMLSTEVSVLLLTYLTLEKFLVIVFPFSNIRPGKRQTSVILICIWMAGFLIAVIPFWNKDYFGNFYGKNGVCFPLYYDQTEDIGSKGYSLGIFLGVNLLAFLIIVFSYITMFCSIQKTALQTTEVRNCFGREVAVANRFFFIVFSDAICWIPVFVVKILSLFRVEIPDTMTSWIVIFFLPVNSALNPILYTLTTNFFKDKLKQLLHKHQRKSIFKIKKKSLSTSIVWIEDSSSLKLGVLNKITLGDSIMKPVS
Experiment: cell-based or functional assay

Binder	EC50 hRXFP2 (M), cAMP HTRF assay [M]
B1	4.67e-08
B2	3.63e-08
B3	3.33e-08
B4	4.94e-08
B5	1.22e-07
B6	1.2e-08
B7	4.88e-08
